B1: Chromosomal passenger complex protein bir1 (Schizosaccharomyces pombe (strain ATCC 38366 / 972)), O14064 (parent)
chain: MKPITSSSKRRWNRFRREMCNYSKRLDTFQKKKWPRAKPTPETLATVGFYYNPISESNSEERLDNVTCYMCTKSFYDWEDDDDPLKEHITHSPSCPWAYILSSKNNPNQNPQAAALTKCREQTFVDKVWPYTNRPDYHCEPSVMAASGFVYNPTADAKDAAHCLYCDINLHDWEPDDDPYTEHKRRRADCVFFTWKDPNSLSPTKLSFLSTSNIDPEDLTEDNSILPVSPTRDSTKSHKTLNFSPSRKNNLNARPLTMSLYTNTSEEKDSQPTRAPQSPTKPVLLTAPRRKNKSPKKSKPAVFKPVKPIFSDEDEDDDDLTASQPFSKGICNDSMQVAKKNFTEEIPLKEDEKDNELEHLVSPATSVHTTVSDITGHQSVTDESDEQNNCMSTPPKIEIESKIEEEISVVSKSKEISSSVSSVGKEQNHTEKQVAIETPEQQKVEKEDEHLNLQGSFIEESTKQPISSKPSTSSPDMTDAATGGRVSSSSFRDKILQTNFSPRSTIDSFSNISKKRNSEEANDENDETNLKIPIPEKKRKFQEVLQSKNILVSSTEDSHEPVKVTEDSQTAIHVSKFEDLENKSMESEQSLQLLSESENDDKPLIDLIPLLAIKRKDNLVSGVLEKGKSTSTSKTKFDTSIVDFIEKPKTEISEVLPEEKRKAICDESQTVRVSIDRGVTKTRDVSSPVSDEKSENVNHEEANSGHTVMNVHSSLDPQPIVQPNELESGSYLKDLPDRNVGNSEKVTFQEDDINSPKLQSKNNQTVEAVNTETSDKLQEKEANHELENIEKIEEKLTEVDKVSLSDAFPDQEIKNSRTSVQNGTRSVSKNTPEKETKVDKIDNVSKKDVETSPGSCETSSAFAKTYAEKEVTSINLPSVRKPLDESYYDHSISPFDPLCQSSFLAPQTPVKSKHALPLVEANAPPWEPIDFSSLLESPVPNPVEPNKLSEKELDMTVEQWIKFMYAKCAKEFEEACEEKIEWLLEEGKRAEEYIQNL
partner: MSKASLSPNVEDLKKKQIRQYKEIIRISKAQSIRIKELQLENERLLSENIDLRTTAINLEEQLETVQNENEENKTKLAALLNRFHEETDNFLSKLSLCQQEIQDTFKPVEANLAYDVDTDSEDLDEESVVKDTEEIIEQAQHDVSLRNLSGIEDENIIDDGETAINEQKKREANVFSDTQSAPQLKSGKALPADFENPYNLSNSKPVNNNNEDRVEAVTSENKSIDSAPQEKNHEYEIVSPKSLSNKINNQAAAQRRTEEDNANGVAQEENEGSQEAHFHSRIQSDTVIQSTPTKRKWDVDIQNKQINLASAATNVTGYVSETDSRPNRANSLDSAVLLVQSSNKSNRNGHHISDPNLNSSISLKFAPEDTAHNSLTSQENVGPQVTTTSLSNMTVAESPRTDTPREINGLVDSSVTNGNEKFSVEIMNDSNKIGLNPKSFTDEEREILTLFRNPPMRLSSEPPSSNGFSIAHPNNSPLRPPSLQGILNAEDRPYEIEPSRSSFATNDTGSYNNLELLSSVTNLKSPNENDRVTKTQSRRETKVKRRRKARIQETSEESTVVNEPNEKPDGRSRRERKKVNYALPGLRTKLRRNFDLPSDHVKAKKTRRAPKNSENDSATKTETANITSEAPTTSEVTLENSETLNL
B2: Borealin (Homo sapiens), Q53HL2 (parent)
chain: MAPRKGSSRVAKTNSLRRRKLASFLKDFDREVEIRIKQIESDRQNLLKEVDNLYNIEILRLPKALREMNWLDYFALGGNKQALEEAATADLDITEINKLTAEAIQTPLKSAKTRKVIQVDEMIVEEEEEEENERKNLQTARVKRCPPSKKRTQSIQGKGKGKRSSRANTVTPAVGRLEVSMVKPTPGLTPRFDSRVFKTPGLRTPAAGERIYNISGNGSPLADSKEIFLTVPVGGGESLRLLASDLQRHSIAQLDPEALGNIKKLSNRLAQICSSIRTHK
partner: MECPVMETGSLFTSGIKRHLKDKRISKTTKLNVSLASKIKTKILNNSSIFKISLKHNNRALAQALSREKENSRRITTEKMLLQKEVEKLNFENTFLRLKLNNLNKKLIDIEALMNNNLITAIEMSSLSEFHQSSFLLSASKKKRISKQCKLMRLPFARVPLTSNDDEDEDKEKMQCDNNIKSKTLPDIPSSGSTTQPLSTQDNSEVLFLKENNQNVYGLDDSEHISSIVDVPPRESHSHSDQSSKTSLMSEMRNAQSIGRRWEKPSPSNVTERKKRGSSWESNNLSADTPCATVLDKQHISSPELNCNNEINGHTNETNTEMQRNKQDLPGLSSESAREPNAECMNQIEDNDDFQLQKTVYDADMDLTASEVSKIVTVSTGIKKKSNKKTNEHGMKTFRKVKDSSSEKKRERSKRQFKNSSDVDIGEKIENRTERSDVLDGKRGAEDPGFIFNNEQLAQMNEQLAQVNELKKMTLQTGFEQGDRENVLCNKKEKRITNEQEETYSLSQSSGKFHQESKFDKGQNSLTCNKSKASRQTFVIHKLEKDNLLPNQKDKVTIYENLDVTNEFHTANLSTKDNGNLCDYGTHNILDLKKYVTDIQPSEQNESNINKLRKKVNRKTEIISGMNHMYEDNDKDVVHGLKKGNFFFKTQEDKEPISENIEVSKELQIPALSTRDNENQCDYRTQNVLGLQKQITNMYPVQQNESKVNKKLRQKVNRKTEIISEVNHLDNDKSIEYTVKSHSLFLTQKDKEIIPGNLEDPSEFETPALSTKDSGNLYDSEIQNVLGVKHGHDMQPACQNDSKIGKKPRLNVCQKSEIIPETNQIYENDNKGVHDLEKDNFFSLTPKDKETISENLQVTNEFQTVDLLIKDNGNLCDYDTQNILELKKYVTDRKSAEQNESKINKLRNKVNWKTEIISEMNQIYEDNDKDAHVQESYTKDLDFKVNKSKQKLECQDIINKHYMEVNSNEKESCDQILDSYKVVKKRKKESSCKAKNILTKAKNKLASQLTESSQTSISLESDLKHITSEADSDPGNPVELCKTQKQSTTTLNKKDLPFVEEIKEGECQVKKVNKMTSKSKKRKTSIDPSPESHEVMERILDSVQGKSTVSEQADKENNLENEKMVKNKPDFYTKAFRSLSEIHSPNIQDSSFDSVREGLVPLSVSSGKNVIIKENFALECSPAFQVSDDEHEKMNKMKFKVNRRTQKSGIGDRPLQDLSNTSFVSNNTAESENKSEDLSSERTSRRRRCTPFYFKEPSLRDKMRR
B3: Borealin (Homo sapiens), Q53HL2 (parent)
chain: B2 chain

Variants of: B1
Conditions: with sgo2_schpo sgo2, O13734

Variant	effect of a mutation on the interaction
S202A;S229A;S244A;S278A;S294A;T393A;T831A;T908A	disrupting interaction

Variants of: B1
Conditions: with sgo2_schpo sgo2, O13734
Remark: another data set of the same source

Variant	effect of a mutation on the interaction
S202A;S229A;S244A;S278A;S294A	disrupting interaction

Variants of: B2
Conditions: with sgo2_human SGO2, Q562F6

Variant	effect of a mutation on the interaction
MAPRKGSSRVAKTNSLRRRKLASFLKDFDREVEIRIKQIESDRQNLLKEVDNLYNIEILRLPKALREMNWLDYFALGGNKQALEEAATADLDITEINKLTAEAIQAPLKSAKTRKVIQVDEMIVEEEEEEENERKNLQTARVKRCPPSKKRTQSIQGKGKGKRSSRANTVAPAVGRLEVSMVKPAPGLAPRFDSRVFKAPGLRAPAAGERIYNISGNGAPLADSKEIFLTVPVGGGESLRLLASDLQRHSIAQLDPEALGNIKKLSNRLAQICSSIRTHK [T106A;T171A;T185A;T189A;T199A;T204A;S219A]	disrupting interaction strength

Variants of: B3
Conditions: with sgo1_human SGO1, Q5FBB7
Chain of sgo1_human SGO1, Q5FBB7 (Q5FBB7 whole entry): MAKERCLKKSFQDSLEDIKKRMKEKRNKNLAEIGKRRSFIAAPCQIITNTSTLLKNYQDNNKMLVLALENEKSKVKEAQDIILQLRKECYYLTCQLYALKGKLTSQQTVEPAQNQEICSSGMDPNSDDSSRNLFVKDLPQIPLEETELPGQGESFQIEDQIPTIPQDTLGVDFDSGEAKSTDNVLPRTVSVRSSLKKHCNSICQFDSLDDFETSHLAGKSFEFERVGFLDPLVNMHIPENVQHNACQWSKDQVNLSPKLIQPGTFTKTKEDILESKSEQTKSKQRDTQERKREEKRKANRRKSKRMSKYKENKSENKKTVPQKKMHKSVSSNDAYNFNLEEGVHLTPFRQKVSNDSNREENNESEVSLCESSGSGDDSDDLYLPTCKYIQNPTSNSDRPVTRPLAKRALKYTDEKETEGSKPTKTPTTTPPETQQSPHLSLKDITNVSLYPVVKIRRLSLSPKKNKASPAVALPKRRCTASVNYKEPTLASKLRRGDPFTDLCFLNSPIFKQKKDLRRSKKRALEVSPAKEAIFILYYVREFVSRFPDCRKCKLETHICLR

Variant	effect of a mutation on the interaction
MAPRKGSSRVAKTNSLRRRKLASFLKDFDREVEIRIKQIESDRQNLLKEVDNLYNIEILRLPKALREMNWLDYFALGGNKQALEEAATADLDITEINKLTAEAIQAPLKSAKTRKVIQVDEMIVEEEEEEENERKNLQTARVKRCPPSKKRTQSIQGKGKGKRSSRANTVAPAVGRLEVSMVKPAPGLAPRFDSRVFKAPGLRAPAAGERIYNISGNGAPLADSKEIFLTVPVGGGESLRLLASDLQRHSIAQLDPEALGNIKKLSNRLAQICSSIRTHK [T106A;T171A;T185A;T189A;T199A;T204A;S219A]	disrupting interaction strength
